Test results: patent publication US20040208873A1

Target: recombinant human IL-8, 72 aa form (monocyte derived) (human) (UniProt P10145)
Assay: cell-based or functional assay

recombinant human IL-8, 72 aa form (monocyte derived) (human), sequence (P10145 28-99 limits assumed): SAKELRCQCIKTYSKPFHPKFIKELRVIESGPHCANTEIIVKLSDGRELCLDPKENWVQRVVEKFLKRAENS

expression level of CD11b on IL-8 stimulated PMN (MFI, flow cytometry): 2400 MFI
expression of CD62L on IL-8 stimulated PMN (MFI, flow cytometry): 150 MFI
Substance: irrelevant human isotype control antibody (Example 8)
